Assay results as given in publication PMC6108940 (Cell, 2018).

Columns and labels:
[1] = target: yeast COMPASS catalytic module (Set1-Swd1-Swd3-Bre2-Sdc1) (Kluyveromyces lactis, UniProt Q6CIT4); assay: H3K4 methylation of nucleosomes, western blot; assay type: biochemical; conditions: 0.2 mM SAM, 1 uM enzyme, 0.5 uM nucleosomes, pH 7.5, 30 C, 30 min
[2] = target: K. lactis Sdc1 (crystallised construct) (K. lactis); assay: crystal structure
[3] = target: K. lactis Bre2 (crystallised construct) (K. lactis); assay: crystal structure

Compound | H3K4 methylation of nucleosomes, western blot [1] | stoichiometry N [2] | stoichiometry N [3]
C[S+](CC[C@H](N)C(=O)O)C[C@H]1O[C@@H](n2cnc3c(N)ncnc32)[C@H](O)[C@@H]1O (stereo partly drawn) [SAM] | alanine mutation of Trp197 drastically compromised the catalytic activity of Set1 |  | 
K. lactis Sdc1 (crystallised construct) (natural protein) |  | 2 | 2
